The supplement of paper PMC12764529
± gives the half width of the 95% confidence interval.

experiment: folding stability dG unfold from chymotrypsin proteolysis; higher = more stable
Procedure, shortened: (§1)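 Only designs with AlphaFold2 dimer inter-PAE above 15 were retained; each was a mini-protein under 80 residues with no cysteine, in a PA-tagged cDNA display construct. After digestion with trypsin and chymotrypsin and sequencing, K50 was inferred by Bayesian fitting of counts, and unfolding free energy was derived per protease or combined against a sequence-predicted unfolded-state K50 and a shared folded-state K50.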

Row | Sequence | folding stability dG unfold [kcal/mol]
1 | SAGGSAGGSAGKIIFERDEDGYLRAIVYDPKTKEVYVRRFKVKDGKITEVETERINLKDLSAGGSAGGSAGG [r11_167_TrROS_Hall] | 2.37 ± 0.078
2 | SAGGMKVEVVPGGGAVVVEIPFPPTPATARLVISFHPDGTVTADLEPHPELPAELRAKLVELARELLGSAGG [r13_139_TrMRF] | 2.31 ± 0.032
3 | SAGGSMKVYEFKSLEEIKKAIENLPPNEKYIVIKKNKNGKLEIIIVSKEEEEELKKKGVDFIIKVKSAGGSA [r2_351_TrROS_Hall] | 2.21 ± 0.07
4 | SSSMPVTVEIEAKKLSNGKYLAKITVKDANGNELEEYEKEMDESEVEKLKEELKKKYPNMKVTMTYKDELSA [r9_374_JUSTAS] | 4.17 ± 0.14
5 | SAGGSAGGSAGMTAKIVERRVLPGDGYLLLVEHPDGSRSAIVVPPELLENLDISDTVEFDSAGGSAGGSAGG [r11_943_TrMRF] | 0.591 ± 0.026
6 | SAGGSAGGSAGMEVFKSADGKRLLIRAKNGKVAEFDVETGELKFSKENLSPEDIEIVEVPSAGGSAGGSAGG [r17_174_TrROS_Hall] | 1.05 ± 0.14
7 | SAGGDWRTITFNFEVDVPPGQTPEQLIEKAEEIVEELARMFPDVKIEVTDIEVDEDKVYIDVEIRVPDSAGG [r13_805_TrROS] | 3.45 ± 0.097
8 | SAGGSAEVTFTLPDGTPFSGEVTRFPDSIRVTLTVGSTPASFEMDPSTNLITGNIPGRPLTVSLGLSAGGSA [r2_194_JUSTAS] | 1.11 ± 0.1
9 | SAGSAYRIEVYNPETGKKVEIFVFPNGEALVKEEDGFSKIYIDPSKPEQVEAIAKEIEPLGVEVKISPWSAG [r5_791_TrMRF] | 1.29 ± 0.29
10 | SAGGSAGGSAGMVNTTLTTAPDGTRIVTTTFPENPDLVLRTTYAPDGSVLETELVPSSQLSAGGSAGGSAGG [r11_909_JUSTAS] | 1.04 ± 0.023
11 | SAGGSAGGPKIRIEIEHYDNYIVISIRIPPGMPPGQEIKFEIGGYPVKVTYDPEDGWMTISFPASAGGSAGG [r6_267_TrROS] | 3.06 ± 0.082
12 | SAGGSAGGSAKPEKPEKVELKPKVKFVKVKVRLRFSFTLENGEKVEVELEATFLFVDGKLVSAGGSAGGSAG [r3_380_TrROS_Hall] | 5.31 ± 0.13
13 | SAGGSAGGSMEFVEIEIEKELETEVSPDGTTTTRYRVPDGSILVVTTTHPPDGVPTPTVTLVASAGGSAGGS [r20_240_JUSTAS] | 0.944 ± 0.075
14 | SPVPLDVPPGSRAVLVFRFPDGSRAVAVFDPVTGKATVTFYPPDGSKVTRTFDGPDLADLPPGVERIAPLSA [r9_1110_TrMRF] | 2.7 ± 0.12
15 | SATMLDYILDMAREQQEKNGKPVPITITIPVRRDPNGKFRMNEIHEELIKALKEAFPNVPIKIEMVPPPSAG [r14_636_TrROS] | 2.27 ± 0.036
16 | SAGGSAGGPEVTITVEEKDGYLVLTVTVPPGVERLELTIEVNGKLVTLELELKPGQTLTFVLPPSAGGSAGG [r6_971_TrROS_Hall] | 3.86 ± 0.12
17 | SAGGSAGGSAGKPVLTLTLRLEDGTLVRIEFDLETEELTVRVLDLETGEEKEFTFKLPAPSAGGSAGGSAGG [r11_931_TrROS_Hall] | 4.07 ± 0.074
18 | SAGGPPSVWIPIEINFPDSPEQLLEEVENAAQEIADLFGIPVKIEVERNPKKGYATIWIRVDGKTIPISAGG [r13_845_TrROS] | 1.7 ± 0.11
19 | SAGGMIKSEKLIKSPENETIKVETTIILDENGNPKSVKKKITVYKNGKPVKEMEISSIGNEIEIKKPSAGGS [r16_35_JUSTAS] | 1.48 ± 0.15
20 | SAGGKKKKVKKVKVEVKVTVTLTIKLPKEKIKSKEEAEALAKKLLEELGIEGAKVKIEEKDGYLTLTFSAGG [r13_130_TrROS_Hall] | 4.24 ± 0.2
21 | SAGMPIKAKVLIFDPVNPVPKEFEFDVEDLDELVEKIREELGVEVVVDPESGVVVVDTPDGSLIVIEFDSAG [r5_937_TrMRF] | 2.93 ± 0.077

Row | Sequence | folding stability dG unfold [kcal/mol]
22 | SAGMKIEEKDGYLVITFKTKEEAEEAAKKLKELFPDAEIVEIKVEKDENGNETVTIVIKLKNLSPEALKSAG [r5_857_TrROS_Hall] | 2.04 ± 0.12
23 | SAGGSAMPKIEVTVYFPENGTETVEIHFPPGKVITGPLSLLEEIIESGIPKENISISYKTLSPSLTSAGGSA [r15_955_JUSTAS] | 1.05 ± 0.061
24 | SAKKLDIKVDGIQRPENNVMILIRIDPGLPPEKDVTITIKGKNGHKQEIPYENDHIYIMVPAQDITIKISAG [r14_350_TrROS] | 2.68 ± 0.045
25 | SAGGMIPPEKLEEIAKKIAEETEPLGKVVKHLFVDPLEDEVVIIELTVYPGPKKIEIKEIKVYPPEELSAGG [r13_37_TrMRF] | 0.251 ± 0.034
26 | SAGGSAGGSAGYIWIPAKDFAKYIAEEHEEKGYQINIPVEVRPDNWVWIDIEIQPLKPGQSAGGSAGGSAGG [r11_214_TrROS] | 1.3 ± 0.096
27 | SAGGSAGGSAGKPIPYRITLETETTRAVFTIPADVPLEKVVEIAREIRELYPAPFSIEPSSAGGSAGGSAGG [r11_515_TrMRF] | -0.00667 ± 0.43
28 | SAGMKEKAIDALKEFFEEEGIKVKKIVIEEKPDGTYKITVYGENGKPIFEIEVPKDVKTSEELKKLIKKSAG [r5_352_TrMRF] | 3.67 ± 0.12
29 | SAGDDWIPIEEIARRIARKHGYPVKSVEVPIYKTPDYYYVTVHIKYENPDDGKKQEFEDQFWIPKDEIKSAG [r5_421_TrROS] | 0.97 ± 0.054
30 | SAGGGRTITVTARFTDPATGTTTTETITIDVPSDTSEEEKKEIAEKTVKEIAEKNGVKSEIESISITSAGGS [r8_312_JUSTAS] | 2.3 ± 0.17
31 | SYDHMRKWIKQAAQERGLKVTNIDIEPTPKTNTFKMSIEIPNGREINFEFQHDKNGGWQFTIQQIKNALKSA [r9_85_TrROS] | 2.8 ± 0.039
32 | SAGGSAGGSAKEILIVMTPEEAEELKKELLEKLKELAKKLKIKEIKIKVYLVKYDKNGKKVSAGGSAGGSAG [r3_89_TrROS_Hall] | 2.66 ± 0.091
33 | SAGGETIPVVMYDPSTGKELTGEIPLKEALDLLAAGKKTAFIPAGGGPVKVHIEPLPDGTVLIVAESGSAGG [r13_171_TrMRF] | 0.71 ± 0.021
34 | SAGGELPLSDITVESESPVTGGSWTVTLEVPSLGLRITVPAAELGAVAASTPGVATSLSPVSPAEPASAGGS [r16_61_JUSTAS] | 0.454 ± 0.093
35 | SAPPIEELSEEEIKKLVEEELKKKGISPENVKIEITIEKPPGPEYRVKVKVTYKKNKNYLEFEFEFELPSAG [r14_703_JUSTAS] | 4.23 ± 0.17
36 | SPIYVFIEKTNNKRTIMIQNPENGWWVEIKFNGGEITFPIDSVEDFLDELKDLGWPIEITKIRPLPPGQLSA [r9_1102_TrROS] | 3.32 ± 0.12
37 | SNPNIKVTTTSETLPDNTLRTTETNPDTGTVTETLVPTDGNGPKTVKTTTTTTDTSTGKKTITTTTTTIPVS [r1_45_JUSTAS] | 0.99 ± 0.02
38 | SAGGSAGGSKKKKKKIKIKIVVNEDELAKKLGLSKEEVRKLAKELADELKKKGYEVEIEIIPPSAGGSAGGS [r12_576_TrROS_Hall] | 3.29 ± 0.054
39 | SAGKNWYIQIQIEHRDPDGKPKREIPIIIEANPGDPEAFERALEFAERIAEKLHPPGHRVEINVTLFPYSAG [r5_793_TrROS] | 2.17 ± 0.1
40 | SAGGSAGGSKPRLVLEIKIKAESEEEAREEVEKALQEKFGLKIKSVEIEREEDYITVRVEIEPSAGGSAGGS [r12_265_TrROS_Hall] | 2 ± 0.061
41 | SAGGSAGGSPLAPGQTVTVRVERVDGPVVITVRNEATGETLTLTFDRPAEDLKPGDTVTVTVTSAGGSAGGS [r12_525_TrROS_Hall] | 2.897 ± 0.021
42 | SAKEEEKKKKKEKKKPKPKTVEITVYINGKKIKKIKFNKKTKKITITLENGKKITIPPGMSLEEILKKLSAG [r14_59_TrROS_Hall] | 3.37 ± 0.1

experiment: folding stability dG unfold from trypsin proteolysis; higher = more stable
Procedure, shortened: as §1

Row | Sequence | folding stability dG unfold [kcal/mol]
43 | SAGGSAGGSAGKIIFERDEDGYLRAIVYDPKTKEVYVRRFKVKDGKITEVETERINLKDLSAGGSAGGSAGG [r11_167_TrROS_Hall] | 2.06 ± 0.049
44 | SAGGMKVEVVPGGGAVVVEIPFPPTPATARLVISFHPDGTVTADLEPHPELPAELRAKLVELARELLGSAGG [r13_139_TrMRF] | 1.6 ± 0.02
45 | SAGGSMKVYEFKSLEEIKKAIENLPPNEKYIVIKKNKNGKLEIIIVSKEEEEELKKKGVDFIIKVKSAGGSA [r2_351_TrROS_Hall] | 0.788 ± 0.089
46 | SSSMPVTVEIEAKKLSNGKYLAKITVKDANGNELEEYEKEMDESEVEKLKEELKKKYPNMKVTMTYKDELSA [r9_374_JUSTAS] | 3.3 ± 0.34
47 | SAGGSAGGSAGMTAKIVERRVLPGDGYLLLVEHPDGSRSAIVVPPELLENLDISDTVEFDSAGGSAGGSAGG [r11_943_TrMRF] | 0.576 ± 0.038
48 | SAGGSAGGSAGMEVFKSADGKRLLIRAKNGKVAEFDVETGELKFSKENLSPEDIEIVEVPSAGGSAGGSAGG [r17_174_TrROS_Hall] | 0.385 ± 0.2
49 | SAGGDWRTITFNFEVDVPPGQTPEQLIEKAEEIVEELARMFPDVKIEVTDIEVDEDKVYIDVEIRVPDSAGG [r13_805_TrROS] | 2.6 ± 0.17
50 | SAGGSAEVTFTLPDGTPFSGEVTRFPDSIRVTLTVGSTPASFEMDPSTNLITGNIPGRPLTVSLGLSAGGSA [r2_194_JUSTAS] | 1.17 ± 0.03
51 | SAGSAYRIEVYNPETGKKVEIFVFPNGEALVKEEDGFSKIYIDPSKPEQVEAIAKEIEPLGVEVKISPWSAG [r5_791_TrMRF] | 1.4 ± 0.1
52 | SAGGSAGGSAGMVNTTLTTAPDGTRIVTTTFPENPDLVLRTTYAPDGSVLETELVPSSQLSAGGSAGGSAGG [r11_909_JUSTAS] | 1.98 ± 0.045
53 | SAGGSAGGPKIRIEIEHYDNYIVISIRIPPGMPPGQEIKFEIGGYPVKVTYDPEDGWMTISFPASAGGSAGG [r6_267_TrROS] | 3.24 ± 0.076
54 | SAGGSAGGSAKPEKPEKVELKPKVKFVKVKVRLRFSFTLENGEKVEVELEATFLFVDGKLVSAGGSAGGSAG [r3_380_TrROS_Hall] | 3.97 ± 0.22
55 | SAGGSAGGSMEFVEIEIEKELETEVSPDGTTTTRYRVPDGSILVVTTTHPPDGVPTPTVTLVASAGGSAGGS [r20_240_JUSTAS] | 1.16 ± 0.021
56 | SPVPLDVPPGSRAVLVFRFPDGSRAVAVFDPVTGKATVTFYPPDGSKVTRTFDGPDLADLPPGVERIAPLSA [r9_1110_TrMRF] | 1.77 ± 0.11
57 | SATMLDYILDMAREQQEKNGKPVPITITIPVRRDPNGKFRMNEIHEELIKALKEAFPNVPIKIEMVPPPSAG [r14_636_TrROS] | 2.23 ± 0.076
58 | SAGGSAGGPEVTITVEEKDGYLVLTVTVPPGVERLELTIEVNGKLVTLELELKPGQTLTFVLPPSAGGSAGG [r6_971_TrROS_Hall] | 4.6 ± 0.3
59 | SAGGSAGGSAGKPVLTLTLRLEDGTLVRIEFDLETEELTVRVLDLETGEEKEFTFKLPAPSAGGSAGGSAGG [r11_931_TrROS_Hall] | 3.51 ± 0.22
60 | SAGGPPSVWIPIEINFPDSPEQLLEEVENAAQEIADLFGIPVKIEVERNPKKGYATIWIRVDGKTIPISAGG [r13_845_TrROS] | 1.66 ± 0.041
61 | SAGGMIKSEKLIKSPENETIKVETTIILDENGNPKSVKKKITVYKNGKPVKEMEISSIGNEIEIKKPSAGGS [r16_35_JUSTAS] | -0.308 ± 0.65
62 | SAGGKKKKVKKVKVEVKVTVTLTIKLPKEKIKSKEEAEALAKKLLEELGIEGAKVKIEEKDGYLTLTFSAGG [r13_130_TrROS_Hall] | 2.66 ± 0.092
63 | SAGMPIKAKVLIFDPVNPVPKEFEFDVEDLDELVEKIREELGVEVVVDPESGVVVVDTPDGSLIVIEFDSAG [r5_937_TrMRF] | 3.08 ± 0.093
